T1: Human DC-HIL (human, UniProt Q14956 23-572)
T1 sequence (looked up): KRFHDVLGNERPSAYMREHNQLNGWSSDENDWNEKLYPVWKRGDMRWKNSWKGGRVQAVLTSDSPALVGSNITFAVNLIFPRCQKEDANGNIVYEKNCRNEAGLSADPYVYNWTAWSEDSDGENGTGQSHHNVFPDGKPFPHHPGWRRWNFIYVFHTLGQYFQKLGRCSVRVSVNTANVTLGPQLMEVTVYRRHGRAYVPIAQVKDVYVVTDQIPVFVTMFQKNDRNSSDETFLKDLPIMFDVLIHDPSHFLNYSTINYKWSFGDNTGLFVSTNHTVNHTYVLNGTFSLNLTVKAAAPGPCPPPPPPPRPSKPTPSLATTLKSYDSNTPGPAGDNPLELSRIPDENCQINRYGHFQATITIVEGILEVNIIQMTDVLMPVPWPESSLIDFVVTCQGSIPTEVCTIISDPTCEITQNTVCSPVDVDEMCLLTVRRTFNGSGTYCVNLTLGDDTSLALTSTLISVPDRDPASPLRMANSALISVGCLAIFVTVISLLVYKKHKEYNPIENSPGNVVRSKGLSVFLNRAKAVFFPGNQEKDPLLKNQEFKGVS


Tests used:
[1] = molecular target: syndecan-4 (SD-4) on mouse T cells (mouse) (UniProt O35988); assay: cell-based or functional assay
Human DC-HIL = molecular target: T1, Human DC-HIL; assay: cell-based or functional assay

Chain of syndecan-4 (SD-4) on mouse T cells (mouse) (O35988 24-198): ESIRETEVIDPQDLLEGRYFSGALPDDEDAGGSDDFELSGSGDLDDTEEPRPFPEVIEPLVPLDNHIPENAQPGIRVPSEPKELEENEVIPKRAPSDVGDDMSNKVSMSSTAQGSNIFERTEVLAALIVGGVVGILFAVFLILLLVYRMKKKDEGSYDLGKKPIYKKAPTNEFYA

Row | Molecule | restoration of pmel-1 T cell activation suppressed by melanoma-MDSC [1] | T cell IFN-γ response against control IgG-treated cultures, kidney cancer (Human DC-HIL)
1 | DC-HIL-Fc fusion protein (from UniProt Q99P91 23-502) | < 90% | 
2 | 3D5 mouse anti-human DC-HIL mAb (antibody, IgG1, V domains shown) VH: QVQLQQSGAELVKPGTSVKLSCKASGYTFTNYYMYWVKQRPGQGLEWIGEINTRNGGNRFNEKFKNKAILTVDKSSNTAYIQVSSLTSEDSAVYYCTTGFAYWGQGTLVTVSA VL: QIVLTQSPAIMSASLGEEITLTCSASSSISYMHWYQQKSGTSPKLLIYTTSTLSSGVPSRFSGSGSGTFYSLTISSVEAEDAADYYCHQSSSYPYTFGGGTKLEIKR |  | 20 fold greater than control IgG-treated cultures

— US20180064809A1 (University of Texas, published 2018)
